Several values for one entry are separate records, joined by “and”; a condition that tells them apart may be missing. Identical values can stand only once.
Key:
SARS-CoV-2 RBD-hFc = SARS-CoV-2 RBD-hFc (SARS-CoV-2); assay: Luminex beads
[1] = target: receptor binding domain (RBD) portion of the SARS-CoV-2 Spike protein (amino acids Arg319-Phe541) ex (SARS-CoV-2)

Binder | binding result (SARS-CoV-2 RBD-hFc) | IC50 [1]
mAb10957 (antibody, V domains shown) VH: EVQLVESGGGLVQPGGSLRLSCAASGVTVSSNYMSWVRQAPGKGLEWVSVIYSGGSTFYADSVKGRFTISRDNSKNTLFLQMNSLRIEDTAVYYCARDLGPYGMDVWGQGTTVTVSS VL: DIQLTQSPSFLSASVGDRVTITCRASQGISSYLAWYQQKPGKAPKLLIYAASTLQSGVPSRFSGSGSGTQFILTISSLQPEDFATYYCQQLNSYPGFTFGPGTKVDIKR | binds | –
mAb11010 (antibody, V domains shown) VH: QVQLVESGGGVVQPGRSLRLSCAASGFTFSSYGMHWVRQAPGKGLEWVAVISYDGSYKYYADSVKGRFTISRDNSKNTLYLQMNSLRAEDTAVYYCAIDGGTVTTIFDYWGQGTLVTVSS VL: not shown | binds | –
mAb11004 (antibody, V domains shown) VH: QVQLVESGGGVVQPGRSLRLSCVASGFTFSIYGMDWVRQAPGKGLEWVAVISYDGSNKYYADSVKGRFTISRDNSKNTLYLQMNSLRPEDTAVYYCAKDREAAADAFDIWGQGTMVTVSS VL: DIQMTQSPSSVSASVGDRVTITCRASQGISSWLAWYQQKPGKAPKLLIYAASSLHSGVPSRFSGSGSGTDFTLTISSLQPEDFATYYCQQANSFRLTFGGGTKVEIK | binds | –
mAb11006 (antibody, V domains shown) VH: EVQLVESGGGLVQPGGSLRLSCAASGFIVSRNYMSWVRQAPGKGLEWVSVIYSGGSTFYADSVKGRFTISRHNSKNTLYLQMNSLKAEDTAVYYCARELRGYFDYWGQGTLVTVSS VL: DIQLTQSPSFLSASVGDRVTITCWASQGISSYLAWYQQKPGKAPKLLIYAASTLQSGVPSRFSGSGSGTEFTLTISSLQPEDFATYYCQLLNSYPYTFGQGTKLEIK | binds | –
mAb11008 (antibody, V domains shown) VH: EVQLVESGGGLVQPGGSLRLSCAASGFTVSSNYMTWVRQAPGKGLEWVSVIYSGGSTFYADSVKGRFTISRHNSENTLYLQMNSLRAEDTAVYYCARDLAAAGTDYWGQGALVTVSS VL: DIQLTQSPSFLSASVGDRVTITCWASQGISSYLAWYQQKPGKAPKLLIYAASTLQSGVPSRFSGSGSGTEFTLTISSLQPDDFATYYCQHLNSYLYTFGQGTKLEIK | binds | –
mAb10998 (antibody, V domains shown) VH: EVQLVESGGGLVHPGGSLRLSCAASGLTVSSNYMSWVRQAPGKGLEWVSVIYSGGSTYYADSVKGRFTISRHNSKNTLFLQMNSLRAEDTAVYYCARDRPITGTTLDVWGQGTTVTVSS VL: DIQMTQSPSSLFASVGDRVTITCRASQSISSYLNWYQQKPGKAPKLLIYAASSLQSGVPSRFSGSGSGTDFTLTISSLQPEDFAFYYCQQTYSTPPITFGQGTRLEIK | binds | –
mAb11002 (antibody, V domains shown) VH: EVQLVESGGGLVQPGGSLRLSCAASGFTVSSNYMSWVRQAPGKGLEWVSVIYSGGSTFYADSVKGRFTISRHNSKNTLYLQMNSLRAEDTAVYYCAREGYGMDVWGQGTTVTVSS VL: not shown | binds | –
mAb10913 (antibody, V domains shown) VH: EVQLVESGGGLVQPGGSLRLSCAASGFTFRNYEMNWVRQAPGKGLEWVSYITSSGSTMYYADSVKGRFTISRDNAKNSLYLQMNSLRAEDTAVYYCARDGFYYYYAMDVWGQGTTVTVSS VL: QSVLTQPPSVSAAPGQKVTISCSGSSSNIGNNYVSWYQQLPGTAPKLLIYDNNKRPSGIPDRFSGSKSGTSATLGITGLQTGDEADYYCGTWDSSLSVGRVFGTGTKVTVLG [mAb10913, listing 1 of 2 here] | – | 0.217 nM
mAb10914 (antibody, V domains shown) VH: EVQLVESGGGLVQPGGSLRLSCAASGLIVSRNYMIWVRQAPGKGLEWVSVIYSGGSTFYADSVKGRFTISRHNSKNTLYLQMNSLRAEDTAVYYCARDLGTGGMDVWGQGTTVTVSS VL: DIQLTQSPSFLSASVGDRVTITCWASQGISSYLAWYQQKPGKAPKLLIYAASTLQSGVPSRFSGSGSGTEFTLTISSLQPEDFATYYCQQLNSYPLTFGGGTKVEIKR [mAb10914, listing 1 of 2 here] | – | 0.98 nM
mAb10915 (antibody, V domains shown) VH: EVQLVESGGGLVQPGGSLRLSCAASGFTVSSNYMNWVRQAPGKGLEWVSVIYSGGSTFYADSVKGRFTISRHNSKNTLYLQMNSLRPEDTAVYYCARDLGGYFDYWGQGTLVTVSS VL: not shown | – | 0.321 nM
mAb10920 (antibody, V domains shown) VH: QVQLVESGGGVVQPGRSLRLSCAASGFTFSYYGMHWVRQAPGKGLEWVAVIWYDGSNKFYADSVKGRFTISRDNSKNTLYLQMNSLRAEDTAVYYCAAARPGYYYGMDVWGQGTTVTVSS VL: DIQMTQSPSSLSASVGDRVTITCRASQGISNYLAWFQQKPGKAPNSLIYAASSLQRGVPSKFSGSGSGTDFTLTISSLQPEDFATYYCQQYNSYPRTFGQGTKVEIKR | – | 0.338 nM and 0.139 nM
mAb10921 (antibody, V domains shown) VH: EVQLVESGGGLVQPGGSLRLSCAASGITVSSNYMSWVRQAPGKGLEWVSVIYSGGSTFYADSVKGRFTISRHNSKNTLYLQMNSLRAEDTAVYYCARERNFDAFDIWGQGTMVTVSS VL: DIQMTQSPSSVSASVGDRVTITCRASQGISSWLAWYQQKPGKAPKLLIYAASSLQSGVPSRFSGSGSGTDFTLTISSLQPEDFATYYCQQANSFPLFTFGPGTKVDIKR | – | 0.433 nM and 0.507 nM
mAb10923 (antibody, V domains shown) VH: QVQLVQSGAEVKKPGASVKVSCKASGYTFINYYIHWVRQAPGQGLEWMGWINPNSGGTNYAQKFQGRVTMTRDTSISTAYMELSRLRSDDTAVYYCAIITIFGVVTWFDPWGQGTLVTVSS VL: not shown | – | 0.149 nM and 0.184 nM
mAb10930 (antibody, V domains shown) VH: EVQLVESGGGLVQPGRSLRLSCAASGFTFDDYAMYWVRQAPGKGLEWVSGISWNSGSIGYADSVKGRFTISRDNAKNSLYLQMNSLRAADTALYYCAKDKDWNSRGYYYYGMDVWGQGTTVTVSS VL: not shown | – | 0.282 nM
mAb10932 (antibody, V domains shown) VH: EVQLVESGGGLVQSGGSLRLSCAASGLTVSSNYMSWVRQAPGKGLEWVSVIYSGGSTFYSDSVKGRFTISRHNSKNTLYLQMNSLRAEDTAVYYCARARGDAFDIWGQGTMVTVSS VL: not shown | – | 0.373 nM
mAb10935 (antibody, V domains shown) VH: EVQLVESGGGLVQPGGSLRLSCAASGFTVSSNYMSWVRQAPGKGLEWVSLIYSGGSTYYADSVKGRFTISRHNSKNTLYLQMNSLRSEDTAVYYCARVPLGDYYYGMDVWGQGTTVTVSS VL: DIQMTQSPSSLSASVGDRVTITCQASQDINKYLNWYQQKPGKAPKLLIYDASNLETGVPSRFSGSGSGTDFTFTISSLQPEDIATYYCQQSDNLPLTFGGGTKVEIKR | – | 0.102 nM and 0.0694 nM
mAb10936 (antibody, V domains shown) VH: QVQLVESGGGVVQPGRSLRLSCAASGFTFRNYGMHWVRQAPGKGLEWVSVIWYDGSNRYYADSVKGRFTISRDTSKNTLYLQMNSLRAEDTAVYYCARDPPITGTTGGDAFDIWGQGTMVTVSS VL: not shown | – | 0.0875 nM and 0.071 nM
mAb10937 (antibody, V domains shown) VH: QITLKESGPTLVKPTQTLTLTCTFSGFSLSTNVVGVGWIRQPPGKALEWLALIYWNDDKRYSPSLKSRLTITKDTSKNQVVLTMTNMDPVDTATYYCAHGPTGDYFDYWGQGTLVTVSS VL: not shown | – | 0.0649 nM
mAb10938 (antibody, V domains shown) VH: EVQLVESGGGLVQPGGSLRLSCAVSGFTVSSNYMSWVRQAPGKGLEWVSLIYSGGSTFYADSVKGRFTISRHNSKNTLYLQMNSLRAEDTAVYYCAREGGYSYDYNYWGQGTLVTVSS VL: DIQMTQSPSSLSASVGDRVTITCQASQDIRNYLNWYQQKPGKAPKLLIYDASNLETGVPSRFSGIGSGTDFTFTISSLQPEDIATYYCQQYDNLPITFGQGTRLEIKR | – | 0.275 nM
mAb10939 (antibody, V domains shown) VH: EVQLVESGGGLVQPGGSLRLSCAASGLTVSSNYMNWVRQVPGKGLEWVSVIYSGGSKFYVDSVKGRFTISRHNSKNTLYLQMNSLRPEDTAVYYCTRDAQYYGMDVWGQGTTVTVSS VL: DIQMTQSPSSLSASVGDRVTITCRASQSISTYLHWYQQKPGEAPKLLIYAASSLQSGVPSRFSGSGSGTDFTLTISSLQPEDFATYYCQQSYSTPPEIFGQGTKLEIKR | – | 0.175 nM and 0.263 nM
mAb10954 (antibody, V domains shown) VH: EVQLVESGGGLVQPGGSLRLSCAASGITVSSNYMSWVRQAPGKGLEWVSLIYSGGSTYYADSVKGRFTISRDNSKNTLYLQMNSLRVEDTAVYYCARDHGMAAAGYNYWGQGTLVTVSS VL: DIQMTQSPSSLSASVGDRVTITCQASQDINKYLNWYQQKPGKAPKLLIYDASNLETGVPSRFSGSGSGTDFTFTINSLQPEDFATYFCQQYDNLPPAFGQGTKVEIKR | – | 0.0711 nM
mAb10955 (antibody, V domains shown) VH: EVQLVESGGGLVQPGGSLRVSCAASGFTVSRNYMSWVRQAPGKGLEWVSVIYSGGSTFYADSVKGRFTISRDNSKNTLYLQMNSLRAEDTAIYYCARYIPRFDPWGQGTLVTVSS VL: DIQMTQSPSSLSASVGDRVTITCQASQDISNYLNWFQQKPGRAPKLLIYDASNLETGVPSRFSGSGSGTDFTFTISSLQPEDIATYYCQQYDNLPITFGQGTRLEIKR | – | 0.141 nM
mAb10956 (antibody, V domains shown) VH: EVQLVESGGGLVQPGGSLRLSCAASGLTVSSNYMSWVRQAPGKGLEWVSVIYSGGSTFYADSVKGRFTISRDNSKNTLYLQMNSLRAEDTAVYYCARDLIKYGMDVWGQGTTVTVSS VL: not shown | – | 0.185 nM
mAb10913 (antibody, V domains shown) VH: EVQLVESGGGLVQPGGSLRLSCAASGFTFRNYEMNWVRQAPGKGLEWVSYITSSGSTMYYADSVKGRFTISRDNAKNSLYLQMNSLRAEDTAVYYCARDGFYYYYAMDVWGQGTTVTVSS VL: QSVLTQPPSVSAAPGQKVTISCSGSSSNIGNNYVSWYQQLPGTAPKLLIYDNNKRPSGIPDRFSGSKSGTSATLGITGLQTGDEADYYCGTWDSSLSVGRVFGTGTKVTVLG [mAb10913, listing 2 of 2 here] | binds | –
mAb10914 (antibody, V domains shown) VH: EVQLVESGGGLVQPGGSLRLSCAASGLIVSRNYMIWVRQAPGKGLEWVSVIYSGGSTFYADSVKGRFTISRHNSKNTLYLQMNSLRAEDTAVYYCARDLGTGGMDVWGQGTTVTVSS VL: DIQLTQSPSFLSASVGDRVTITCWASQGISSYLAWYQQKPGKAPKLLIYAASTLQSGVPSRFSGSGSGTEFTLTISSLQPEDFATYYCQQLNSYPLTFGGGTKVEIKR [mAb10914, listing 2 of 2 here] | binds | –

From patent US20240043504A1 (published 2024)
